IntAct's records for PubMed 31515488

Assays:
mdfi_human MDFI = mdfi_human MDFI (UniProt Q99750)
gors2_human GORASP2 = gors2_human GORASP2 (UniProt Q9H8Y8)
dpyl5_human DPYSL5 = biological target: T1, dpyl5_human DPYSL5 (UniProt Q9BPU6)
T1 sequence: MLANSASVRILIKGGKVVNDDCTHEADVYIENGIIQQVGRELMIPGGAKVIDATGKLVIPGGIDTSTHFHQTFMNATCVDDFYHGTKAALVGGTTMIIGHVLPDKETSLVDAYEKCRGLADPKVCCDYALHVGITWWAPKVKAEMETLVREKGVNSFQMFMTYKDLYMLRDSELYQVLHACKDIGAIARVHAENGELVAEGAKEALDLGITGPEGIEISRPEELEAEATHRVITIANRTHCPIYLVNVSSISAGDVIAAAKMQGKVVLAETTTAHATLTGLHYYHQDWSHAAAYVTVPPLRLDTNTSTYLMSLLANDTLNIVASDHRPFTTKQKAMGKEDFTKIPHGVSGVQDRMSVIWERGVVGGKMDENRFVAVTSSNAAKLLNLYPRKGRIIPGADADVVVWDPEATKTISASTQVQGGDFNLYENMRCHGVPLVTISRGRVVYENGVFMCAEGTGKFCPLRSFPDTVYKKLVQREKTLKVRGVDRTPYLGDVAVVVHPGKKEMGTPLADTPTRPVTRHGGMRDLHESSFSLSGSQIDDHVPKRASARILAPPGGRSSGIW

dpyl3_human DPYSL3 = dpyl3_human DPYSL3 (UniProt Q14195)
dpyl3_human DPYSL3, sequence (Q14195 whole entry): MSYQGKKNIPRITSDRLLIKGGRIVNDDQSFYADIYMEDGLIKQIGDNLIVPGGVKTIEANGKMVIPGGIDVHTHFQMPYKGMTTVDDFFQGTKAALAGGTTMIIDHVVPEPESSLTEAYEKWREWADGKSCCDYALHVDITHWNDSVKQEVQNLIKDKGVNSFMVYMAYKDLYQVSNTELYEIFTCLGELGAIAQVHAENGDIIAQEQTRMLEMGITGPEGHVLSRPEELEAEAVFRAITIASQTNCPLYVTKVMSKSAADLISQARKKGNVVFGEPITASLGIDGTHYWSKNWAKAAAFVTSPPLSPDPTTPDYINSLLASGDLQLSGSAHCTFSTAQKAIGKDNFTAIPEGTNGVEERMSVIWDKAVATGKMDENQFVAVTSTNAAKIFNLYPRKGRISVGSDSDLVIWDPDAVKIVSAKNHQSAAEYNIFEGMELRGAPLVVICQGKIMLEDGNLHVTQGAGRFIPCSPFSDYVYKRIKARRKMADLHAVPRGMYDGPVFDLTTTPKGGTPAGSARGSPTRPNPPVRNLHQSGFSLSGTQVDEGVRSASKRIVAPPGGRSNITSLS

ubql1_human UBQLN1 = ubql1_human UBQLN1 (UniProt Q9UMX0)
ubql1_human UBQLN1, sequence (Q9UMX0 whole entry): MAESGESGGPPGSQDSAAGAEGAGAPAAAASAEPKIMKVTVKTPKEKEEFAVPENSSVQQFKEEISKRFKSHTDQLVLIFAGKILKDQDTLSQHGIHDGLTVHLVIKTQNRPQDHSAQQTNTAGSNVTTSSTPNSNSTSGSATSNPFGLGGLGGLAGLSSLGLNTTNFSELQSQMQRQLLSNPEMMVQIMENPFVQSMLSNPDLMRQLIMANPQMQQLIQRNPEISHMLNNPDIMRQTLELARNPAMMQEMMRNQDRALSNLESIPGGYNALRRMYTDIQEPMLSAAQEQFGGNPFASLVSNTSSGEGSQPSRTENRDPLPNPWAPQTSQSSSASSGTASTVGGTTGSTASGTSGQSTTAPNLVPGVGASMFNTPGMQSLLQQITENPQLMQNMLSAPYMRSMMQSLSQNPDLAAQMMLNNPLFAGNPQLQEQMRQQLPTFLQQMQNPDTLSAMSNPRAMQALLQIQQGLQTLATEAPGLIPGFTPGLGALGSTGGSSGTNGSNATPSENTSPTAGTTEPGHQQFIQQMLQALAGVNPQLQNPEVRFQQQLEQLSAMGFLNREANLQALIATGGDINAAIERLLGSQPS

dzip3_human DZIP3 = dzip3_human DZIP3 (UniProt Q86Y13)
dzip3_human DZIP3, sequence (Q86Y13 whole entry): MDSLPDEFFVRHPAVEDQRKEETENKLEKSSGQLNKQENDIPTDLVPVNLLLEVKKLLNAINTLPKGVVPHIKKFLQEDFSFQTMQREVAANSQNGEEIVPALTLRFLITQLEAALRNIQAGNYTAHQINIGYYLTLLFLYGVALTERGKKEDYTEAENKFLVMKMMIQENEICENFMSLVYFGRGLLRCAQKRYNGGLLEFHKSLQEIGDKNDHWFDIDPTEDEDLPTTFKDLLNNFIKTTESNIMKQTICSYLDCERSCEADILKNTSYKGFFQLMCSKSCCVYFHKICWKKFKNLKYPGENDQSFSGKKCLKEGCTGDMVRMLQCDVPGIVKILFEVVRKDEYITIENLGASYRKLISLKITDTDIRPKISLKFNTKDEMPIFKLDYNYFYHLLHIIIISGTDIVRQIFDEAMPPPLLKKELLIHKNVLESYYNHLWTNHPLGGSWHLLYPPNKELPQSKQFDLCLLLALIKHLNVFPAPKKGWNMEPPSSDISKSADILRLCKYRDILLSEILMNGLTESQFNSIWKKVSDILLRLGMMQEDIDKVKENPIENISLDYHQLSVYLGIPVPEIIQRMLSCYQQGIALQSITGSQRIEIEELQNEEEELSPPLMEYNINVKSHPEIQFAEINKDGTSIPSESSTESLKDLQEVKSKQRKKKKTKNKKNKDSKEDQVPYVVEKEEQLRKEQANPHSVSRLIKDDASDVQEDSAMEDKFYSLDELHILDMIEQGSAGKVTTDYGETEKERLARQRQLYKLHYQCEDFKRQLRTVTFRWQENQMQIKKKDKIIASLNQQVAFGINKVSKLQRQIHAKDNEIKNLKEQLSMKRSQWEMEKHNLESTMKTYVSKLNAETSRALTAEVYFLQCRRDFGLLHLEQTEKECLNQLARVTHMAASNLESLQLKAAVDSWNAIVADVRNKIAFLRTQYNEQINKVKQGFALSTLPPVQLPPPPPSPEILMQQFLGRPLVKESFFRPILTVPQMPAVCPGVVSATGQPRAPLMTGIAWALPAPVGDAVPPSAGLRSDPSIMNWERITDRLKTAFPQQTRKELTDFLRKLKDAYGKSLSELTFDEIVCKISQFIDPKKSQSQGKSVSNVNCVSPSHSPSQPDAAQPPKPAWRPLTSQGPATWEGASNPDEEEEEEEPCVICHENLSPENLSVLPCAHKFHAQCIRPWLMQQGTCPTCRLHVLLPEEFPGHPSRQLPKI

zn446_human ZNF446 [1] = biological target: zn446_human ZNF446 (UniProt Q9NWS9)
zn446_human ZNF446, sequence (Q9NWS9 whole entry): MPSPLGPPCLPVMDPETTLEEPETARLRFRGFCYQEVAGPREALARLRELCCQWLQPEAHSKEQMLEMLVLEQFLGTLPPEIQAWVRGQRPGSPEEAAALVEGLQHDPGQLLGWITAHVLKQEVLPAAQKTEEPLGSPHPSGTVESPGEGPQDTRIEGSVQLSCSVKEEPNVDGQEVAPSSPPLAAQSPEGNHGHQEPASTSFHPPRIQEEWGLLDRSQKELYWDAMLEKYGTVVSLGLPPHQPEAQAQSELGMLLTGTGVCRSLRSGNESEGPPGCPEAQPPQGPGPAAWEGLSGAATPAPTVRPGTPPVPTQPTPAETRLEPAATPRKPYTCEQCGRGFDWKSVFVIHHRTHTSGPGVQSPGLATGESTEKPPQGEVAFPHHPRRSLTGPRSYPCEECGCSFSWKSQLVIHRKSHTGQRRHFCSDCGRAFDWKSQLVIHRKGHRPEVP

rbtn2_human LMO2 = rbtn2_human LMO2 (UniProt P25791)
rbtn2_human LMO2, sequence (P25791 whole entry): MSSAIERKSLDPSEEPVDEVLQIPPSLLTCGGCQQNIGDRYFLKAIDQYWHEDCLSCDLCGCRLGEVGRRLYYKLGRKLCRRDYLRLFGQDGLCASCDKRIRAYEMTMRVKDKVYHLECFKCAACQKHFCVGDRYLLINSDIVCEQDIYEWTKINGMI

trim1_human MID2 = trim1_human MID2 (UniProt Q9UJV3)
ctbp2_human CTBP2 = ctbp2_human CTBP2 (UniProt P56545)
cry2_human CRY2 = biological target: T2, cry2_human CRY2 (UniProt Q49AN0)
T2 sequence: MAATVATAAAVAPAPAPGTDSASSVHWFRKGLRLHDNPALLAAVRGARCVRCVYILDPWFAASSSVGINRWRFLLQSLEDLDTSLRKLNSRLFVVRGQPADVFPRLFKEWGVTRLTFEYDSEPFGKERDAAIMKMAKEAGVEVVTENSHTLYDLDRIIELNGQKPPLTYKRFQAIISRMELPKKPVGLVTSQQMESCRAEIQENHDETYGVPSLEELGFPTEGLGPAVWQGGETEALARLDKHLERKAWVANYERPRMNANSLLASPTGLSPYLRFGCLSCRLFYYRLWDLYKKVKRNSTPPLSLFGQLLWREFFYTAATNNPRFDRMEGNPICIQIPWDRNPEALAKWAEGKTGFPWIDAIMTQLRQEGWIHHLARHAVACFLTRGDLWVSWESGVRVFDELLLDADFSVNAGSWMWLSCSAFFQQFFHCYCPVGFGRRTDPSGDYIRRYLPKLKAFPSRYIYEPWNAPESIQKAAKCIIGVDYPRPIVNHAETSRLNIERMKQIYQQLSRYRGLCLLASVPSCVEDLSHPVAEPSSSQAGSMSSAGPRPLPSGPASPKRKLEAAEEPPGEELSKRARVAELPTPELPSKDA

hxb5_human HOXB5 = hxb5_human HOXB5 (UniProt P09067)
hxb5_human HOXB5, sequence (P09067 whole entry): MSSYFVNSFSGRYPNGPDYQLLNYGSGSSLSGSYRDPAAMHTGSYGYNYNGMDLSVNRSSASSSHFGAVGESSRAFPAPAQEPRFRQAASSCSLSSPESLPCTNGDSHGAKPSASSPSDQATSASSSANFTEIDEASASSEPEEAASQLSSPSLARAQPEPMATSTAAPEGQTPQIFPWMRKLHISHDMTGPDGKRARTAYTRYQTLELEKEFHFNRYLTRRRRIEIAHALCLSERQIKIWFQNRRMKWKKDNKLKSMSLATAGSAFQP

aapk1_human PRKAA1 = aapk1_human PRKAA1 (UniProt Q13131)
zn446_human ZNF446 [2] = biological target: zn446_human ZNF446 (UniProt Q9NWS9); remark: listed apart in the source
zbt14_human ZBTB14 = biological target: T3, zbt14_human ZBTB14 (UniProt O43829)
T3 sequence: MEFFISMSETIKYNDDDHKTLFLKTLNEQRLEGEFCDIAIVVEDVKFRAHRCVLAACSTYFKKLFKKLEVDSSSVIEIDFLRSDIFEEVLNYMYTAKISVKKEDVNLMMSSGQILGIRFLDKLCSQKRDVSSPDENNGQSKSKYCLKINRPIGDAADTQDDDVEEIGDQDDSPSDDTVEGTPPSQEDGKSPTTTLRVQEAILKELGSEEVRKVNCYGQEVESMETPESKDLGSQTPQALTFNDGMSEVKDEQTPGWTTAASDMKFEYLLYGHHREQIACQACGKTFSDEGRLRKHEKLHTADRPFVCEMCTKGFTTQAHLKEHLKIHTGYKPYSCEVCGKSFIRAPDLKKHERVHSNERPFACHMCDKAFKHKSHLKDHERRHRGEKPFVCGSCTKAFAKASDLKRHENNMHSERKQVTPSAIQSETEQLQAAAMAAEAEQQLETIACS

otx1_human OTX1 = otx1_human OTX1 (UniProt P32242)
tmm79_human TMEM79 = biological target: T4, tmm79_human TMEM79 (UniProt Q9BSE2)
T4 sequence: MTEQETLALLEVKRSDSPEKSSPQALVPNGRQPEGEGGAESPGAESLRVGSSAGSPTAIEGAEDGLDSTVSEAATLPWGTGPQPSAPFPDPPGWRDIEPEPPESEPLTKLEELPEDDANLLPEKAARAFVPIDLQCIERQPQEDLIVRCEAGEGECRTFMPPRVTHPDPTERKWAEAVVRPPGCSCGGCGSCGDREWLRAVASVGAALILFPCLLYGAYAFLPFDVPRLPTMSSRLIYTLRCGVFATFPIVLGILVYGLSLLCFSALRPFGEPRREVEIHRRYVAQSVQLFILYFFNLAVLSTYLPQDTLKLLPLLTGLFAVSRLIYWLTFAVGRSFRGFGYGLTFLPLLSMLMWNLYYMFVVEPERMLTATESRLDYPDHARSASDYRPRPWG

cxcl9_human CXCL9 = biological target: T5, cxcl9_human CXCL9 (UniProt Q07325)
T5 sequence: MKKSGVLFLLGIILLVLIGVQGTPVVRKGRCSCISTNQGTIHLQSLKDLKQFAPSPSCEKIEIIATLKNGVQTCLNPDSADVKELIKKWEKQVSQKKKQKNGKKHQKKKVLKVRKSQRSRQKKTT

spopl_human SPOPL = spopl_human SPOPL (UniProt Q6IQ16)
an32b_human ANP32B = an32b_human ANP32B (UniProt Q92688)
an32b_human ANP32B, sequence (Q92688 whole entry): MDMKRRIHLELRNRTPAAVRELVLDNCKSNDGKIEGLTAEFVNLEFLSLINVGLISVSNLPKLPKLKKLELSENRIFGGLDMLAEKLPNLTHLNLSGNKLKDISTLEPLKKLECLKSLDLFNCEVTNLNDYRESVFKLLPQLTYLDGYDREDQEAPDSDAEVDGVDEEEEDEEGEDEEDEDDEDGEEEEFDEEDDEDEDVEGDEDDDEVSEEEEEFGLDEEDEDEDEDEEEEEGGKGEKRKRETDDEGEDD

nup50_human NUP50 = nup50_human NUP50 (UniProt Q9UKX7)

Importin subunit alpha-6 (Homo sapiens), O15131 F48L, sequence (O15131 whole entry F48L): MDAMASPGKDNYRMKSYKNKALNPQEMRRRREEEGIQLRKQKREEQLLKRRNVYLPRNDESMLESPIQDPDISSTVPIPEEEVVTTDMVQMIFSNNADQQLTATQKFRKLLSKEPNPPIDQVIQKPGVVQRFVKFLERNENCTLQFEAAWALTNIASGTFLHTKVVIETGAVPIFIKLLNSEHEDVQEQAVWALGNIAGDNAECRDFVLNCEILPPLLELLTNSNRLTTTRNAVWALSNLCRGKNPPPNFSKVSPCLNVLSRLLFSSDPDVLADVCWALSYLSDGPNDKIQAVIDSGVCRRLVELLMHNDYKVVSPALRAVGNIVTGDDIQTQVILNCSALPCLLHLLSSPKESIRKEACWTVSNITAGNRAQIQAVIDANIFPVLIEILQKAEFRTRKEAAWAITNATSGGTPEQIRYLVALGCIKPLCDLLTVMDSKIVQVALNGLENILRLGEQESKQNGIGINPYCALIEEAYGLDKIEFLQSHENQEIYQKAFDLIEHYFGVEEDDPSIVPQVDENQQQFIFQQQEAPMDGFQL
Zinc finger protein 24 (Homo sapiens), P17028 T85M, sequence (P17028 whole entry T85M): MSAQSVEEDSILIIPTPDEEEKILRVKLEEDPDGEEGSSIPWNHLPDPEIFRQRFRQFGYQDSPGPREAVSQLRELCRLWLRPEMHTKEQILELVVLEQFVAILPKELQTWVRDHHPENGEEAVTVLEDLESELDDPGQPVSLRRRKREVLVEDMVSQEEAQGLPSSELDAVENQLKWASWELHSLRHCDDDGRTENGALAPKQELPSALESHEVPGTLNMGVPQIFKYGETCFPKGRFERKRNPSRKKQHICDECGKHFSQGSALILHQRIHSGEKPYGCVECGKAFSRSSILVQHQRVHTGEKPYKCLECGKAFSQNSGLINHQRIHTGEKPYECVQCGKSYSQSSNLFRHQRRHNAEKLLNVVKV
Nuclear transition protein 2 (Homo sapiens), Q05952 R131W, sequence (Q05952 whole entry R131W): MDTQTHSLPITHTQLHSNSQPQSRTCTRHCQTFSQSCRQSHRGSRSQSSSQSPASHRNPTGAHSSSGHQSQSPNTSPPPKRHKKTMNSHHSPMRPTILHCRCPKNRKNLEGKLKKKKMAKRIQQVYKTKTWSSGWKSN
mdfi_human MDFI, sequence (Q99750 whole entry): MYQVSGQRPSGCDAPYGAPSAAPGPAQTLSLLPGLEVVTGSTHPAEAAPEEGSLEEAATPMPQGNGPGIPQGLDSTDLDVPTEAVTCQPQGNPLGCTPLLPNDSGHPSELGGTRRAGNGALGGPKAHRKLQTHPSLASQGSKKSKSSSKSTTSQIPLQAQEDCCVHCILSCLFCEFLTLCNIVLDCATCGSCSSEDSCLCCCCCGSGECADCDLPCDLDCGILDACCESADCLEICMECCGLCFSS

## Nuclear transition protein 2 (Homo sapiens), Q05952 R131W
mdfi_human MDFI
  effect of a mutation on the interaction: with no effect

## Dihydropyrimidinase-related protein 2 (Homo sapiens) (from UniProt Q16555) A267S
gors2_human GORASP2
  effect of a mutation on the interaction: with no effect
dpyl5_human DPYSL5
  effect of a mutation on the interaction: with no effect
dpyl3_human DPYSL3
  effect of a mutation on the interaction: with no effect

## Frizzled-7 (Homo sapiens) (from UniProt O75084) P285S
ubql1_human UBQLN1
  effect of a mutation on the interaction: with no effect

## Zinc finger protein 24 (Homo sapiens), P17028 T85M
dzip3_human DZIP3
  effect of a mutation on the interaction: with no effect
zn446_human ZNF446 [1]
  effect of a mutation on the interaction: with no effect
rbtn2_human LMO2
  effect of a mutation on the interaction: with no effect
trim1_human MID2
  effect of a mutation on the interaction: with no effect

## C-terminal-binding protein 1 (Homo sapiens) (from UniProt Q13363) A436T
ctbp2_human CTBP2
  effect of a mutation on the interaction: with no effect
cry2_human CRY2
  effect of a mutation on the interaction: with no effect
hxb5_human HOXB5
  effect of a mutation on the interaction: with no effect
aapk1_human PRKAA1
  effect of a mutation on the interaction: with no effect

## Zinc finger protein 397 (Homo sapiens), Q8NF99 P169S
zn446_human ZNF446 [2]
  effect of a mutation on the interaction: with no effect

## Small ribosomal subunit protein eS7 (Homo sapiens) (from UniProt P62081) R106Q
zbt14_human ZBTB14
  effect of a mutation on the interaction: with no effect

## Cartilage oligomeric matrix protein (Homo sapiens), P49747 N386D
otx1_human OTX1
  effect of a mutation on the interaction: with no effect

## Surfactant protein C (Homo sapiens) (from UniProt P11686) R167Q
tmm79_human TMEM79
  effect of a mutation on the interaction: with no effect
cxcl9_human CXCL9
  effect of a mutation on the interaction: with no effect

## Importin subunit alpha-6 (Homo sapiens), O15131 F48L
spopl_human SPOPL
  effect of a mutation on the interaction: with no effect
an32b_human ANP32B
  effect of a mutation on the interaction: with no effect
nup50_human NUP50
  effect of a mutation on the interaction: with no effect
